Laboratory results reported in patent US20250249113A1, “LIGAND-DRUG-CONJUGATES WITH IMPROVED PHARMACOKINETIC AND DRUG RELEASE PROPERTIES” (Debiopharm Research & Manufacturing S.A., priority 2022, published 2025).

What was measured:
Assay in all cases: In vitro cytotoxicity on DLBCL cell lines panel (CellTiter Glo)
Type in all cases: cell-based
A3/KAW cells = settings: A3/KAW cell line, 72 hours of incubation, relative IC50
Method: (§1) After 72 hours of incubation, plates were inspected under an inverted microscope to ensure growth of the controls and sterile conditions. Then, 50 μL CellTiter Glo (Promega, G7572) were added prior to luminescence reading as per the manufacturer's instructions. Relative IC50 were calculated using GraphPad Prism.

OCI-LY19 cells = settings: OCI-LY19 cell line, 72 hours of incubation, relative IC50
Method: as §1

DOHH-2 cells = settings: DOHH-2 cell line, 72 hours of incubation, relative IC50
Method: as §1

Toledo cells = settings: Toledo cell line, 72 hours of incubation, relative IC50
Method: as §1

WSU-DLCL2 cells = settings: WSU-DLCL2 cell line, 72 hours of incubation, relative IC50
Method: as §1

SU-DHL-8 cells = settings: SU-DHL-8 cell line, 72 hours of incubation, relative IC50
Method: as §1

OCI-LY7 cells = settings: OCI-LY7 cell line, 72 hours of incubation, relative IC50
Method: as §1

SU-DHL-6 cells = settings: SU-DHL-6 cell line, 72 hours of incubation, relative IC50
Method: as §1

OCI-LY3 cells = settings: OCI-LY3 cell line, 72 hours of incubation, relative IC50
Method: as §1

SU-DHL-2 cells = settings: SU-DHL-2 cell line, 72 hours of incubation, relative IC50
Method: as §1

Pfeiffer cells = settings: Pfeiffer cell line, 72 hours of incubation, relative IC50
Method: as §1

WSU-NHL cells = settings: WSU-NHL cell line, 72 hours of incubation, relative IC50
Method: as §1

U-2932 cells = settings: U-2932 cell line, 72 hours of incubation, relative IC50
Method: as §1

SU-DHL-5 cells = settings: SU-DHL-5 cell line, 72 hours of incubation, relative IC50
Method: as §1

SU-DHL-4 cells = settings: SU-DHL-4 cell line, 72 hours of incubation, relative IC50
Method: as §1

HBL-1 cells = settings: HBL-1 cell line, 72 hours of incubation, relative IC50
Method: as §1

KARPAS-422 cells = settings: KARPAS-422 cell line, 72 hours of incubation, relative IC50
Method: as §1

B1: Debio 1562: Comparative example: naratuximab reacted with crosslinking reagent SMCC and the maytansinoid DM1; DAR 3.5 (conjugate, chains of the INN, looked up)
VH: QVQVQESGPGLVAPSQTLSITCTVSGFSLTTSGVSWVRQPPGKGLEWLGVIWGDGSTNYHPSLKSRLSIKKDHSKSQVFLKLNSLTAADTATYYCAKGGYSLAHWGQGTLVTVSS
VL: DIQMTQSPSSLSVSVGERVTITCRASENIRSNLAWYQQKPGKSPKLLVNVATNLADGVPSRFSGSGSGTDYSLKINSLQPEDFGTYYCQHYWGTTWTFGQGTKLEIK
modifications: SMCC-DM1, DAR 3.5
B1 gave an IC50 (A3/KAW cells) of 33 nM, an IC50 (OCI-LY19 cells) of 45.5 nM and an IC50 (DOHH-2 cells) of 0.949 nM. It also gave an IC50 (Toledo cells) of 90 nM, an IC50 (WSU-DLCL2 cells) of 9.59 nM and an IC50 (SU-DHL-8 cells) of 21.5 nM. The IC50 (OCI-LY7 cells) was 79.3 nM, the IC50 (SU-DHL-6 cells) was 1.74 nM and the IC50 (OCI-LY3 cells) was 0.352 nM. For the same molecule, the IC50 (SU-DHL-2 cells) was 7.78 nM, the IC50 (Pfeiffer cells) was 73.5 nM and the IC50 (WSU-NHL cells) was 0.19 nM. For the same molecule, the IC50 (U-2932 cells) was 3.57 nM, the IC50 (SU-DHL-5 cells) was 0.901 nM and the IC50 (SU-DHL-4 cells) was 0.983 nM. The IC50 (HBL-1 cells) was 0.217 nM and the IC50 (KARPAS-422 cells) was 20.5 nM.
